Assay results as given in patent publication US20140221281A1 (Sanofi, published 2014).
*1 amine or outer side, *2 acyl side, *3 side chain or, on linkers, in order; H or OH if unused. Where no end group is shown, it is not given here. Side-chain parts run from the residue outwards. [ ]: non-standard residue; d: D form. The star is where a group is joined. γGlu = O=C(O)[C@H](CCC(=O)[*:2])N[*:1]; Stearoyl = CCCCCCCCCCCCCCCCCC(=O)*; Palmitoyl = CCCCCCCCCCCCCCCC(=O)*; d(αMeK) = C[C@@](N)(CCCCN)C(=O)O; αMeOrn = C[C@](N)(CCCN)C(=O)O; αMeK = C[C@](N)(CCCCN)C(=O)O; Api = NC1(C(=O)O)CCNCC1; Aib = CC(C)(N)C(=O)O

T1: human GIP receptor (human, UniProt P48546 22-466)
T1 sequence (looked up): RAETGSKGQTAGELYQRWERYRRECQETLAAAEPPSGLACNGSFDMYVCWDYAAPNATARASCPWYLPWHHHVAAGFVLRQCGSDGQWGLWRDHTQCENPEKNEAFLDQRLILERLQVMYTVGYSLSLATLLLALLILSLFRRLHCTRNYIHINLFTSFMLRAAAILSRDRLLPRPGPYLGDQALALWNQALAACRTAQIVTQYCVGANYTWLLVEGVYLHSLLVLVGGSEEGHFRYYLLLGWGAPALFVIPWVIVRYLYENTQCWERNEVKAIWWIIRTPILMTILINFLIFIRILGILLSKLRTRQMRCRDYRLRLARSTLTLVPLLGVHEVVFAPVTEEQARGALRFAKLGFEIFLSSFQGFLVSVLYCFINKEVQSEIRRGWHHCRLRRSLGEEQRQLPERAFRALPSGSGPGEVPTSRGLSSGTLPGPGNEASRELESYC


How the values were obtained:
Experiment in all cases: cell-based or functional assay
human GIP receptor = target: T1, human GIP receptor
human glucagon receptor = human glucagon receptor (human, UniProt P47871 26-477)
Sequence of human glucagon receptor (P47871 26-477): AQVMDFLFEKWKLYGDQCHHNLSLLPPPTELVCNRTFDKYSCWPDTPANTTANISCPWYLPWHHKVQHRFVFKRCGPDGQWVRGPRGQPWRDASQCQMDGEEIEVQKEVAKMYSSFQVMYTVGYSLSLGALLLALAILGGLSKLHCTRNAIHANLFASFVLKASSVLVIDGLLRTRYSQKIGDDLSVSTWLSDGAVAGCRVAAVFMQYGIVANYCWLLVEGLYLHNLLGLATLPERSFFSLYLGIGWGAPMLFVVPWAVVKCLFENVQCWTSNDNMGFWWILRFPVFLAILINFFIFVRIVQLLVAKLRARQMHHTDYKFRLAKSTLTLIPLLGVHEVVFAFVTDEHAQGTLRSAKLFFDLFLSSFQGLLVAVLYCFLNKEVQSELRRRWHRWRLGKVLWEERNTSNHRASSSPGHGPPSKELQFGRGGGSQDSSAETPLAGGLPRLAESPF

human GLP-1 receptor = human GLP-1 receptor (human, UniProt P43220 24-463)

Binder	EC50 hGIP R [pM] (cAMP formation) (human GIP receptor)	EC50 hGLUC R [pM] (cAMP formation) (human glucagon receptor)	EC50 hGLP-1 R [pM] (cAMP formation) (human GLP-1 receptor)
Y[Aib]EGTFTSDLSIQK([γGlu-Palmitoyl])EERAA[Api]EFIEWLKNTGPSSGAPPPS-NH2 (N-terminus assumed; SMILES CCCCCCCCCCCCCCCC(=O)N[C@@H](CCC(=O)NCCCC[C@H](NC(=O)[C@H](CCC(N)=O)NC(=O)[C@@H](NC(=O)[C@H](CO)NC(=O)[C@H](CC(C)C)NC(=O)[C@H](CC(=O)O)NC(=O)[C@H](CO)NC(=O)[C@@H](NC(=O)[C@H](Cc1ccccc1)NC(=O)[C@@H](NC(=O)CNC(=O)[C@H](CCC(=O)O)NC(=O)C(C)(C)NC(=O)[C@@H](N)Cc1ccc(O)cc1)[C@@H](C)O)[C@@H](C)O)[C@@H](C)CC)C(=O)N[C@@H](CCC(=O)O)C(=O)N[C@@H](CCC(=O)O)C(=O)N[C@@H](CCCNC(=N)N)C(=O)N[C@@H](C)C(=O)N[C@@H](C)C(=O)NC1(C(=O)N[C@@H](CCC(=O)O)C(=O)N[C@@H](Cc2ccccc2)C(=O)N[C@H](C(=O)N[C@@H](CCC(=O)O)C(=O)N[C@@H](Cc2c[nH]c3ccccc23)C(=O)N[C@@H](CC(C)C)C(=O)N[C@@H](CCCCN)C(=O)N[C@@H](CC(N)=O)C(=O)N[C@H](C(=O)NCC(=O)N2CCC[C@H]2C(=O)N[C@@H](CO)C(=O)N[C@@H](CO)C(=O)NCC(=O)N[C@@H](C)C(=O)N2CCC[C@H]2C(=O)N2CCC[C@H]2C(=O)N2CCC[C@H]2C(=O)N[C@@H](CO)C(N)=O)[C@@H](C)O)[C@@H](C)CC)CCNCC1)C(=O)O) [SEQ ID NO: 8]	16.3 pM	34700 pM	4.7 pM
Y[Aib]EGTFTSDLSIQK([γGlu-Palmitoyl])EERAA[d(αMeK)]EFIEWLKNTGPSSGAPPPS-NH2 (N-terminus assumed; SMILES CCCCCCCCCCCCCCCC(=O)N[C@@H](CCC(=O)NCCCC[C@H](NC(=O)[C@H](CCC(N)=O)NC(=O)[C@@H](NC(=O)[C@H](CO)NC(=O)[C@H](CC(C)C)NC(=O)[C@H](CC(=O)O)NC(=O)[C@H](CO)NC(=O)[C@@H](NC(=O)[C@H](Cc1ccccc1)NC(=O)[C@@H](NC(=O)CNC(=O)[C@H](CCC(=O)O)NC(=O)C(C)(C)NC(=O)[C@@H](N)Cc1ccc(O)cc1)[C@@H](C)O)[C@@H](C)O)[C@@H](C)CC)C(=O)N[C@@H](CCC(=O)O)C(=O)N[C@@H](CCC(=O)O)C(=O)N[C@@H](CCCNC(=N)N)C(=O)N[C@@H](C)C(=O)N[C@@H](C)C(=O)N[C@](C)(CCCCN)C(=O)N[C@@H](CCC(=O)O)C(=O)N[C@@H](Cc1ccccc1)C(=O)N[C@H](C(=O)N[C@@H](CCC(=O)O)C(=O)N[C@@H](Cc1c[nH]c2ccccc12)C(=O)N[C@@H](CC(C)C)C(=O)N[C@@H](CCCCN)C(=O)N[C@@H](CC(N)=O)C(=O)N[C@H](C(=O)NCC(=O)N1CCC[C@H]1C(=O)N[C@@H](CO)C(=O)N[C@@H](CO)C(=O)NCC(=O)N[C@@H](C)C(=O)N1CCC[C@H]1C(=O)N1CCC[C@H]1C(=O)N1CCC[C@H]1C(=O)N[C@@H](CO)C(N)=O)[C@@H](C)O)[C@@H](C)CC)C(=O)O) [SEQ ID NO: 9]	93.2 pM	> 1e+06 pM	13.5 pM
Y[Aib]EGTFTSDLSIQK([γGlu-Palmitoyl])EERAA[αMeOrn]EFIEWLKNTGPSSGAPPPS-NH2 (N-terminus assumed; SMILES CCCCCCCCCCCCCCCC(=O)N[C@@H](CCC(=O)NCCCC[C@H](NC(=O)[C@H](CCC(N)=O)NC(=O)[C@@H](NC(=O)[C@H](CO)NC(=O)[C@H](CC(C)C)NC(=O)[C@H](CC(=O)O)NC(=O)[C@H](CO)NC(=O)[C@@H](NC(=O)[C@H](Cc1ccccc1)NC(=O)[C@@H](NC(=O)CNC(=O)[C@H](CCC(=O)O)NC(=O)C(C)(C)NC(=O)[C@@H](N)Cc1ccc(O)cc1)[C@@H](C)O)[C@@H](C)O)[C@@H](C)CC)C(=O)N[C@@H](CCC(=O)O)C(=O)N[C@@H](CCC(=O)O)C(=O)N[C@@H](CCCNC(=N)N)C(=O)N[C@@H](C)C(=O)N[C@@H](C)C(=O)N[C@@](C)(CCCN)C(=O)N[C@@H](CCC(=O)O)C(=O)N[C@@H](Cc1ccccc1)C(=O)N[C@H](C(=O)N[C@@H](CCC(=O)O)C(=O)N[C@@H](Cc1c[nH]c2ccccc12)C(=O)N[C@@H](CC(C)C)C(=O)N[C@@H](CCCCN)C(=O)N[C@@H](CC(N)=O)C(=O)N[C@H](C(=O)NCC(=O)N1CCC[C@H]1C(=O)N[C@@H](CO)C(=O)N[C@@H](CO)C(=O)NCC(=O)N[C@@H](C)C(=O)N1CCC[C@H]1C(=O)N1CCC[C@H]1C(=O)N1CCC[C@H]1C(=O)N[C@@H](CO)C(N)=O)[C@@H](C)O)[C@@H](C)CC)C(=O)O) [SEQ ID NO: 10]	7.1 pM	10400 pM	4.9 pM
Y[Aib]QGTFTSDLSKQK([γGlu-Stearoyl])DEQRA[αMeK]EFIEWLKSGGPSSGAPPPS-NH2 (N-terminus assumed; SMILES CCCCCCCCCCCCCCCCCC(=O)N[C@@H](CCC(=O)NCCCC[C@H](NC(=O)[C@H](CCC(N)=O)NC(=O)[C@H](CCCCN)NC(=O)[C@H](CO)NC(=O)[C@H](CC(C)C)NC(=O)[C@H](CC(=O)O)NC(=O)[C@H](CO)NC(=O)[C@@H](NC(=O)[C@H](Cc1ccccc1)NC(=O)[C@@H](NC(=O)CNC(=O)[C@H](CCC(N)=O)NC(=O)C(C)(C)NC(=O)[C@@H](N)Cc1ccc(O)cc1)[C@@H](C)O)[C@@H](C)O)C(=O)N[C@@H](CC(=O)O)C(=O)N[C@@H](CCC(=O)O)C(=O)N[C@@H](CCC(N)=O)C(=O)N[C@@H](CCCNC(=N)N)C(=O)N[C@@H](C)C(=O)N[C@@](C)(CCCCN)C(=O)N[C@@H](CCC(=O)O)C(=O)N[C@@H](Cc1ccccc1)C(=O)N[C@H](C(=O)N[C@@H](CCC(=O)O)C(=O)N[C@@H](Cc1c[nH]c2ccccc12)C(=O)N[C@@H](CC(C)C)C(=O)N[C@@H](CCCCN)C(=O)N[C@@H](CO)C(=O)NCC(=O)NCC(=O)N1CCC[C@H]1C(=O)N[C@@H](CO)C(=O)N[C@@H](CO)C(=O)NCC(=O)N[C@@H](C)C(=O)N1CCC[C@H]1C(=O)N1CCC[C@H]1C(=O)N1CCC[C@H]1C(=O)N[C@@H](CO)C(N)=O)[C@@H](C)CC)C(=O)O) [SEQ ID NO: 12]	27 pM	–	11.6 pM
Y[Aib]QGTFTSDLSIQK([γGlu-Stearoyl])DEQRA[d(αMeK)]EFIEWLKSGGPSSGAPPPS-NH2 (N-terminus assumed; SMILES CCCCCCCCCCCCCCCCCC(=O)N[C@@H](CCC(=O)NCCCC[C@H](NC(=O)[C@H](CCC(N)=O)NC(=O)[C@@H](NC(=O)[C@H](CO)NC(=O)[C@H](CC(C)C)NC(=O)[C@H](CC(=O)O)NC(=O)[C@H](CO)NC(=O)[C@@H](NC(=O)[C@H](Cc1ccccc1)NC(=O)[C@@H](NC(=O)CNC(=O)[C@H](CCC(N)=O)NC(=O)C(C)(C)NC(=O)[C@@H](N)Cc1ccc(O)cc1)[C@@H](C)O)[C@@H](C)O)[C@@H](C)CC)C(=O)N[C@@H](CC(=O)O)C(=O)N[C@@H](CCC(=O)O)C(=O)N[C@@H](CCC(N)=O)C(=O)N[C@@H](CCCNC(=N)N)C(=O)N[C@@H](C)C(=O)N[C@](C)(CCCCN)C(=O)N[C@@H](CCC(=O)O)C(=O)N[C@@H](Cc1ccccc1)C(=O)N[C@H](C(=O)N[C@@H](CCC(=O)O)C(=O)N[C@@H](Cc1c[nH]c2ccccc12)C(=O)N[C@@H](CC(C)C)C(=O)N[C@@H](CCCCN)C(=O)N[C@@H](CO)C(=O)NCC(=O)NCC(=O)N1CCC[C@H]1C(=O)N[C@@H](CO)C(=O)N[C@@H](CO)C(=O)NCC(=O)N[C@@H](C)C(=O)N1CCC[C@H]1C(=O)N1CCC[C@H]1C(=O)N1CCC[C@H]1C(=O)N[C@@H](CO)C(N)=O)[C@@H](C)CC)C(=O)O) [SEQ ID NO: 13]	33.1 pM	202 pM	13.6 pM
Y[Aib]EGTFTSDLSIQK([γGlu-Stearoyl])DERAA[αMeK]EFIEWLKNTGPSSGAPPPS-NH2 (N-terminus assumed; SMILES CCCCCCCCCCCCCCCCCC(=O)N[C@@H](CCC(=O)NCCCC[C@H](NC(=O)[C@H](CCC(N)=O)NC(=O)[C@@H](NC(=O)[C@H](CO)NC(=O)[C@H](CC(C)C)NC(=O)[C@H](CC(=O)O)NC(=O)[C@H](CO)NC(=O)[C@@H](NC(=O)[C@H](Cc1ccccc1)NC(=O)[C@@H](NC(=O)CNC(=O)[C@H](CCC(=O)O)NC(=O)C(C)(C)NC(=O)[C@@H](N)Cc1ccc(O)cc1)[C@@H](C)O)[C@@H](C)O)[C@@H](C)CC)C(=O)N[C@@H](CC(=O)O)C(=O)N[C@@H](CCC(=O)O)C(=O)N[C@@H](CCCNC(=N)N)C(=O)N[C@@H](C)C(=O)N[C@@H](C)C(=O)N[C@@](C)(CCCCN)C(=O)N[C@@H](CCC(=O)O)C(=O)N[C@@H](Cc1ccccc1)C(=O)N[C@H](C(=O)N[C@@H](CCC(=O)O)C(=O)N[C@@H](Cc1c[nH]c2ccccc12)C(=O)N[C@@H](CC(C)C)C(=O)N[C@@H](CCCCN)C(=O)N[C@@H](CC(N)=O)C(=O)N[C@H](C(=O)NCC(=O)N1CCC[C@H]1C(=O)N[C@@H](CO)C(=O)N[C@@H](CO)C(=O)NCC(=O)N[C@@H](C)C(=O)N1CCC[C@H]1C(=O)N1CCC[C@H]1C(=O)N1CCC[C@H]1C(=O)N[C@@H](CO)C(N)=O)[C@@H](C)O)[C@@H](C)CC)C(=O)O) [SEQ ID NO: 14]	4.5 pM	4730 pM	7.2 pM
